Source: patent publication US20250197511A1 (HORIZON THERAPEUTICS IRELAND DAC, published 2025)
Numbering of substitutions follows the chain as printed. In names and notes the source's numbering stands. Values belong to the binder of their own block, whether it stands above or below them.

Molecular target: IGF-1R on NCI-H322 cells (UniProt P08069 31-1367, limits assumed)
Assay: cell-based or functional assay

IGF-1R on NCI-H322 cells, sequence (P08069 31-1367 limits assumed): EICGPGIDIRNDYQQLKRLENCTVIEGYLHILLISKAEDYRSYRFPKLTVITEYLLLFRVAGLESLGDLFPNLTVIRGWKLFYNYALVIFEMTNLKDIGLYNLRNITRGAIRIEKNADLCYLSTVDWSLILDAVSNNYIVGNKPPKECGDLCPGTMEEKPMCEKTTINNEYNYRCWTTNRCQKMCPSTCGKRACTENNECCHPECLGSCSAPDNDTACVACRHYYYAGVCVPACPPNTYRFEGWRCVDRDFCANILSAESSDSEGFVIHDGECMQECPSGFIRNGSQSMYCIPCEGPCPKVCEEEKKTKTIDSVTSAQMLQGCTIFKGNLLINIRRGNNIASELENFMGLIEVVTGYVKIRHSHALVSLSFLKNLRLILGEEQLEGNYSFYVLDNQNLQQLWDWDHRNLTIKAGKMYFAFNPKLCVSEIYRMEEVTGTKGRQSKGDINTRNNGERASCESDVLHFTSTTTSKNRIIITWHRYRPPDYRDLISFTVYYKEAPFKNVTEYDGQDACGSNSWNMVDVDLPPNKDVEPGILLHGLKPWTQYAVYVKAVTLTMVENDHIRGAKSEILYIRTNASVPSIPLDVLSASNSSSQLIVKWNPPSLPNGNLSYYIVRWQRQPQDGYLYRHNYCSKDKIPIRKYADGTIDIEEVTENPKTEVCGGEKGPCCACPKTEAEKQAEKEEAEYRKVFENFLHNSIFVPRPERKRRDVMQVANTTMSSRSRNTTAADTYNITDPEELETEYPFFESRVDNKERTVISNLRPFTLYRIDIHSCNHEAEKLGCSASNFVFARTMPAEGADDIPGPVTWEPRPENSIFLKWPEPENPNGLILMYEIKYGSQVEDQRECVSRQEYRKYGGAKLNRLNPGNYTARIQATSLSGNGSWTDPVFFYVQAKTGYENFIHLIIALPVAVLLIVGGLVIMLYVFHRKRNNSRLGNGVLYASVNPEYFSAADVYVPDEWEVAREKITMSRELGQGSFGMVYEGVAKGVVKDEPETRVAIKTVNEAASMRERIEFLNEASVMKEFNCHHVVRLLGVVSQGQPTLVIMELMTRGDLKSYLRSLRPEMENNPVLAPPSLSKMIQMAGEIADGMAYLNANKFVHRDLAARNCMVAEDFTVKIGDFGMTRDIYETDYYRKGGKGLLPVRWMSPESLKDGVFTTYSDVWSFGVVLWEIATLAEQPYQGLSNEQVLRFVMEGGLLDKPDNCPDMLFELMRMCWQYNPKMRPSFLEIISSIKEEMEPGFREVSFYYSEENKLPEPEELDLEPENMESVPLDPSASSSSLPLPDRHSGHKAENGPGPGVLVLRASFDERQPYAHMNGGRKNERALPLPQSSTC

IC50 of inhibition of IGF-1R phosphorylation (antibody dilution started at 100 ug/mL, diluted 1/8): 0.397 µg/mL
B1: Teprotumumab reference antibody (antibody, V domains shown)
VH: QVELVESGGGVVQPGRSQRLSCAASGFTFSSYGMHWVRQAPGKGLEWVAIIWFDGSSTYYADSVRGRFTISRDNSKNTLYLQMNSLRAEDTAVYFCARELGRRYFDLWGRGTLVSVSS
VL: EIVLTQSPATLSLSPGERATLSCRASQSVSSYLAWYQQKPGQAPRLLIYDASKRATGIPARFSGSGSGTDFTLTISSLEPEDFAVYYCQQRSKWPPWTFGQGTKVESK

IC50 of inhibition of IGF-1R phosphorylation (antibody dilution started at 100 ug/mL, diluted 1/8): 0.0205 µg/mL
B2: D03-YTE (clone D03 with the YTE mutation M252Y/S254T/T256E, EU numbering) (antibody, human IgG1, kappa, V domains shown)
VH: B1 VH with Y32H, I50Y
VL: EIVLTQSPATLSLSPGERATLSCRASQSVSSALAWYQQKPGQAPRLLIYDASKRATGIPARFSGSGSGTDFTLTISSLEPEDFAVYYCQQRSKYPPWTFGQGTKVESKR
